Measurements as given in patent US12428485B2, “Compositions and methods to block and bind CCR2 to modulate cellular function” (The Research Foundation for The State University of New York, priority 2019, dated 2025).
Values belong to the molecule of their own block, whether it stands above or below them.

Key:
[1] = tested on: triple-negative breast cancer (TNBC) tumors; test: Flow cytometry of immune cells in harvested TNBC tumors; type: in vivo, BALB/c mice
Description: At study completion, the tumors were harvested, digested, and single cell suspensions stained for immune cells. Dual-epitope blocking of CCR2 reduced TAMs, MDSCs, and M2-Macrophages and increased M1-Macrophages in triple-negative breast cancer (TNBCs).
We observed that dual-epitope scFv combination treatment outperforms small molecule CCR2 antagonist (SMA) and decreased tumor-associated macrophages (TAMs), myeloid-derived suppressor cells (MDSCs), and M2-macrophages and increased M1-macrophages. Single cell suspension from the harvested tumors were analyzed by flow cytometry. The cells were stained for (A) CD68+ TAMs, (B) MDSCs, (C) MHC class II macrophages (M1), and (D) CD206+ macrophages (M2).
Treatment groups included: PBS, CCR2 small molecule antagonist (SMA), PEG(20K)-ECL2-scFv, PEG(20K)-NTD-scFv, and NTD & ECL2 combination (co-dosing of PEG(20K)-ECL2-scFv and PEG(20K)-NTD-scFv), with *p<0.05, **p<0.01, and ***p<0.001 by one-way ANOVA followed by Tukey's post-test.

[2] = tested on: TNBCs in the mammary fat pads; test: TNBC tumor growth, dual epitope blocking; type: in vivo, female BALB/c mice; settings: scFvs 1 mg/kg, SMA 2 mg/kg, tail vein, days 7, 9, 12, 14, 16, 18
Protocol: Further, we evaluated the effect of dual epitope blocking of CCCR2 on tumor growth. TNBCs were injected into the mammary fat pads of female BALB/c mice. Treatment of tumored mice started on days 7, 9, 12, 14, 16, and 18. To enhance the circulation half-life of the NTD-scFv and ECL2-scFv, we used site-directed mutagenesis to introduce a cysteine at the C-terminus of the scFvs for covalent attachment of a PEG-maleimide with molecular weight of 20 kDa. Animals (n=10 per group) were systemically (via tail vein injection) treated with (1) PBS, (2) CCR2-small molecule antagonist (SMA), (3) PEG(20K)-NTD-scFv, (4) PEG(20K)-ECL2-scFv, and (5) a NTD and ECL2 combo (co-dosing of PEG(20K)-NTD-scFv and PEG(20K)-ECL2-scFv).

[3] = tested on: RAW 264.7 macrophage cells; test: Cell binding analysis by flow cytometry, RAW 264.7; parameters: species or system mouse; settings: fluorescently labeled scFv
Protocol: FIG. 13. Binding of monomeric 58C-scFv (circles), low valency 58C-scFv attached to liposomes (triangles), and high valency 58C-scFv attached to liposomes (squares) to RAW 264.7 macrophage cells as determined by flow cytometry. […] The liposomes were incubated with DyLight 650 NHS Ester labeled 58C-scFv at 4° C. overnight. Cells were detached with 5 mM EDTA and re-suspended in PBS to a concentration of 50,000 cells per 300 μL. The cells were incubated with various dilutions of DyLight 650 NHS Ester labeled 58C-scFv (free, low degree of valency, or high degree of valency) for 1 h at 4° C. Cells were washed three times with 5% BSA and analyzed in the APC channel of a MACSQuant Analyzer 10 flow cytometer (Miltenyi Biotec, Bergisch Gladbach, Germany).
Cells were detached with 5 mM EDTA and re-suspended in PBS to a concentration of 50,000 cells per 300 μL. Cells were plated in a 48-well plate and incubated for 30 min at 4° C. After removing the PBS solution, the cells were incubated with various dilutions of DyLight 650 NHS Ester labeled 58C-scFv for 1 h at 4° C. Cells were washed three times with 5% BSA, detached with EDTA, and analyzed in the APC channel of a MACSQuant Analyzer 10 flow cytometer (Miltenyi Biotec, Bergisch Gladbach, Germany).

human CCR2 = molecular target: T1, human CCR2 (Homo sapiens, UniProt P41597); test: Cross-reactivity with human CCR2; type: binding
T1 construct: endogenous in cells; host or cells: MDA-MB-231 human breast cancer cells
T1 sequence (P41597 whole entry): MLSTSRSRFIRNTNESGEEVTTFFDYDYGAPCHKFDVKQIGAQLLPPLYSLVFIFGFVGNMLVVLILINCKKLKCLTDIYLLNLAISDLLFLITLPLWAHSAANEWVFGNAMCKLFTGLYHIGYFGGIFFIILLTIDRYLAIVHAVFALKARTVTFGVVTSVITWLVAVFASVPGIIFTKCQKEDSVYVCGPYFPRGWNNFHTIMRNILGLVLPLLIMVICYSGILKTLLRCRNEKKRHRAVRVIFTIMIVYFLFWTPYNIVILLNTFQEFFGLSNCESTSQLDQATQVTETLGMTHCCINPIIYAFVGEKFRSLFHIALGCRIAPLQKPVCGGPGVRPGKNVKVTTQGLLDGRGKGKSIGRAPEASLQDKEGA

4T1 breast cancer cells = test: Cell binding by flow cytometry, 4T1; settings: MFI
Description: FIG. 16. ECL2-scFv binding to the ECL2 domain of the CCR2 chemokine receptor.

[4] = tested on: RAW 264.7 mouse macrophages; test: Macrophage polarization, RT-PCR of M1/M2 marker genes, RAW 264.7; type: cell-based; settings: RAW 264.7, 24 h; LPS 100 ng/mL, IL-4 20 ng/mL, 58C-scFv 1 μM
Protocol: RAW 264.7 mouse macrophages were incubated with either LPS (100 ng/mL), IL-4 (20 ng/mL; PeproTech, Rocky Hill, NJ), or 58C-scFv (1 μM) for 24 h. For the multivalency studies, RAW 264.7 mouse macrophages were first incubated with IL-4 (20 ng/mL) for 24 h to stimulate an M2 phenotype. Following the 24 h incubation, fresh media with 58C-scFv (89 nM) was added to the cells and incubated for an additional 24 h. Total RNA was isolated with QIAzol lysis reagent (Qiagen, Germany) and total cDNA was generated using the New England Biolabs first stand synthesis kit (Ipswich, MA). RNA expression was detected by reverse transcription (RT)-PCR performed with the SYBR Green PCR kit (Qiagen). For each sample, the ΔΔCt value was calculated. Experiments were performed in triplicate. […]
To assess the effects of the anti-CCR2 scFvs on macrophage polarization, RAW 264.7 and bone marrow-derived macrophages (BMDMs) were treated with NTD-scFv and ECL2-scFv. […] To determine whether these changes were additive, synergistic, or antagonistic, the combination indices (CI) were calculated for NTD-scFv and ECL2-scFv by treating cells with a combination of NTD-scFv and ECL2-scFv. CI was calculated by: CI=(CA,X/ICX,A)+(CB,X/ICX,B), where CA,X and CB,X are the concentration of drug A (in this case NTD-scFv) and B (here, ECL2-scFv) used in combination to achieve x % drug effect. […]

Molecule: Cc1ccc2c(c1)C1(CCN(CCc3nc(-c4ccccc4)oc3C)CC1)OC(=O)N2 [RS 504393]
effects on TAMs, MDSCs, M1 and M2 macrophages compared to PBS control ([1]; FIG. 24A-D, SMA 2 mg/kg): not significant
change in Tregs, CD8+ and CD4+ T cells compared to PBS treated mice ([1]; flow cytometry): no statistically significant reduction
reduction in tumor volume, order among treatment groups [2]: weakest effect

cross-reactivity, binding to human CCR2 (human CCR2): bind to human CCR2
B1: ECL2-scFv: scFv against the 2nd extracellular loop (ECL2) of CCR2; Example 3 names scFv 4h, SEQ ID NO:6 (protein, listed as Homo sapiens)
scFv: MKKTAIAIAVALAGFATVAQADYKDDDDKLQSVLTQPPSASGTPGQRVTISCSGSSSNIGSHTVNWYQQLPGTAPKLLIYRNNQRPSGVPDRFSGSKSGTSASLAISGLRSEDEADYYCAAWDDSLSGVVFGGGTKLTVLGEGKSSGSGSESKASQVTLKESGAEVKKPGASVKVSCKASGYTFTNFYIHWVRRAPGQGLEWMGIINPSDGRTTYAQKFQGRVTMTRDTSTSTLYMELTSLRSEDTAVYYCGRGGHYSNYFGQPSTWGQGTLVTVSSVEAS
binding to RAW 264.7 cells [3]: binds
binding to 4T1 breast cancer cells (4T1 breast cancer cells): binds

B2: IL-4: interleukin, M2 promoting agent (protein, UniProt P05112 25-153, looked up)
Interleukin-4: HKCDITLQEIIKTLNSLTEQKTLCTELTVTDIFAASKNTTEKETFCRAATVLRQFYSHHEKDTRCLGATAQQFHRHKQLIRFLKRLDRNLWGLAGLNSCPVKEANQSTLENFLERLKTIMREKYSKCSS
macrophage polarization, M1/M2 gene expression compared to the untreated control [4]: increased both Arg-1 and Mgl2 gene expression
